Measured values from patent US5756665A, “Peptide isolated from micrococcus varians and use thereof” (priority 1995, dated 1998).

Legend:
Assay type in all cases: cell-based
[1] = test system: strain Lactococcus lactis which produces lacticin 481; assay: Inhibition spectrum test on the lacticin 481 producer
Gram-negative bacteria = assay: Inhibition spectrum, summary for Gram-negative bacteria; conditions: summary of Table V
Description: The inhibition spectrum of the supernatant is thus determined.

[2] = test system: Lactobacillus helveticus (N 2); assay: Resistance to heat and to pH, agar well test; conditions: pH 4 or 7 combined with elevated temperature
[3] = test system: Lactobacillus helveticus (N 2); assay: Resistance to heat, agar well test; conditions: 60 min incubation at 100 °C
[4] = test system: Lactobacillus helveticus (N 2); assay: Resistance to pH, agar well test; conditions: pH 2 to 10
[5] = test system: Lactobacillus helveticus (N 2); assay: Inactivation by enzymes, agar well test

Row | Substance | growth of the lacticin 481-producing strain in the presence of the bacteriocin [1] | inhibitory effect on the growth of Gram-negative bacteria (Gram-negative bacteria) | bactericidal activity after heat and pH [2] | bactericidal activity after heat [3] | pH dependence of bactericidal activity [4] | influence of catalase on bactericidal activity ([5]; Tables I and II, two indicator strains) | effect of proteolytic enzymes on bactericidal activity ([5]; all proteolytic enzymes of Tables I and II)
1 | lacticin 481 | immune | – | – | – | – | – | –
2 | variacin: bacteriocin from Micrococcus varians strains CNCM I-1586 and CNCM I-1587, amino acid sequence SEQ ID NO:1, 2659 daltons (GSGVIPTISHECHMNSFQFVFTCCS) | – | does not exert any inhibitory effect | not compromised | not compromised | not pH-dependent | not found to exert any influence | suppress the bactericidal activity
